Reference: US7790682B1, “Engineered human acidic fibroblast growth factors and associated methods” (The Florida State University Research Foundation, Inc., priority 2003, dated 2010)
“Also recorded” adds a separate entry of the source.

B1: SYM5: FGF-1 core mutant Leu44→Phe/Leu73→Val/Val109→Leu/Leu111→Ile/Cys117→Val (protein, UniProt P05230 16-155, looked up, variant L44F L73V V109L L111I C117V)
Fibroblast growth factor 1: FNLPPGNYKKPKLLYCSNGGHFLRILPDGTVDGTRDRSDQHIQFQLSAESVGEVYIKSTETGQYLAMDTDGLVYGSQTPNEECLFLERLEENHYNTYISKKHAEKNWFLGIKKNGSVKRGPRTHYGQKAILFLPLPVSSD
B2: SYM5/Δ104-106: SYM5 FGF-1 mutant plus Ala103→Gly/ΔGlu104/ΔLys105/ΔAsn106 (protein, UniProt P05230 16-155, looked up, variant L44F L73V V109L L111I C117V A103G del104-106)
Fibroblast growth factor 1: FNLPPGNYKKPKLLYCSNGGHFLRILPDGTVDGTRDRSDQHIQFQLSAESVGEVYIKSTETGQYLAMDTDGLVYGSQTPNEECLFLERLEENHYNTYISKKHGWFLGIKKNGSVKRGPRTHYGQKAILFLPLPVSSD
B3: SYM5/Δ120-122: SYM5 FGF-1 mutant plus Arg119→Gly/ΔGly120/ΔPro121/ΔArg122, SEQ ID NO: 2 (protein)
chain: FNLPPGNYKKPKLLYCSNGGHFLRILPDGTVDGTRDRSDQHIQFQLSAESVGEVYIKSTETGQYLAMDTDGLVYGSQTPNEECLFLERLEENHYNTYISKKHAEKNWFLGIKKNGSVKGTHYGQKAILFLPLPVSSD
modifications: Human FGF-1 mutant SYM5D120-122
B4: SYM6/ΔΔ: SYM6 FGF-1 mutant plus both Δ104-106 and Δ120-122 deletion mutations, SEQ ID NO: 1 (protein)
chain: FNLPPGNYKKPKLLYCSNGGHFLRILPDGTVDGTRDRSDQHIQFQLSAESVGEVYIKSTETGQYLAIDTDGLVYGSQTPNEECLFLERLEENHYNTYISKKHGWFLGIKKNGSVKGTHYGQKAILFLPLPVSSD
modifications: Human FGF-1 mutant SYM6DD

Legend:
[1] = Folding and unfolding kinetics (Chevron plot, stopped-flow CD, GuHCl); type: physicochemical; conditions: for kf: folding rate constant extrapolated to 0M GuHCl; for kf / ku: global Chevron fit; for ΔΔG‡-D / ΔΔG‡-N: in reference to WT*; for ΔΔG‡-D: positive value = decrease in folding activation barrier; for ΔΔG‡-N: positive value = decrease in unfolding activation barrier; for mf: slope of ln(kf) vs GuHCl; for mu: slope of ln(ku) vs GuHCl; for ku: unfolding rate constant extrapolated to 0M GuHCl
Experimental: Due to signal-to-noise considerations, relatively high protein concentrations (>100 μM) of FGF-1 were required for kinetic studies monitored by CD. At these concentrations protein precipitation occurred in ADA buffer. Therefore, a different buffering system was chosen for the kinetic studies to permit higher protein concentrations without precipitation. Protein samples were dialyzed against 50 mM sodium phosphate, 100 mM NaCl, 10 mM ammonium sulfate, 2 mM DTT, and typically 2.5, 3.0 or 3.8M GuHCl pH 7.5 overnight at 298K prior to data collection (higher concentrations of GuHCl were required to ensure complete denaturation for some stabilizing mutations).
Protein samples were degassed for 10 minutes prior to analysis. Refolding was initiated by a 1:10 dilution of protein solutions into 50 mM sodium phosphate, 100 mM NaCl, 10 mM ammonium sulfate, 2 mM DTT pH 7.5 containing either 0.1M or 0.05M increments of GuHCl up to the midpoint of denaturation. All data were collected using an Aviv model SF305 stopped flow system. Data collection times for each protein were designed to quantify the CD signal over 5 half-lives, or >96% of the total expected amplitude.
Protein samples (300 μM) were dialyzed against 50 mM sodium phosphate, 100 mM NaCl, 10 mM ammonium sulfate, 2 mM DTT pH 7.50 buffer overnight at 298K, and degassed for 10 min prior to data collection. Unfolding was initiated by 1:10 dilution of the native protein into 50 mM sodium phosphate, 100 mM NaCl, 10 mM ammonium sulfate, 2 mM DTT pH 7.5 buffer with final GuHCl concentration in the range of 1.5 to 5.5M in 0.5M increments. The unfolding process was quantified by following the change in CD signal at 227 nm, and data collection times for each protein were designed so as to monitor the CD signal over 3 to 4 half-lives, or >93% of the total expected amplitude.
Triplicate scans were collected for both folding and unfolding kinetic data at each GuHCl buffer condition. In all cases, data from at least three separate experiments were averaged. The kinetic rates and amplitudes versus denaturant concentration were calculated from the time dependent change in CD signal using a single exponential model: I(t)=Aexp(−kt)+C (3) where I(t) is the intensity of CD signal at time t, A is the corresponding amplitude, k is the observed rate constant for the reaction and C is a constant that is the asymptote of the CD signal. Folding and unfolding rate constant data were fit to a global function describing the contribution of both rate constants to the observed kinetics as a function of denaturant (“Chevron” plot): In(kobs)=In(kf0exp(mkfD)+ku0exp(mkuD)) (5) where kf0 and ku0 are the folding and unfolding rate constants, respectively, extrapolated to 0M denaturant, mkf and mku are the slopes of the linear functions relating In(kf) and In(ku), respectively, to D, the denaturant concentration. Changes in activation barriers upon mutation were calculated using a modified version of transition state theory: ΔΔG‡-D=RTIn(kf Mut/kfWT*) and ΔΔG‡-N=RTIn(ku Mut/kuWT*) (6) where kf Mut, ku Mut, kf WT* and ku WT* are the folding and unfolding rates for mutant and WT*, respectively, in water. ΔΔG‡-D, and ΔΔG‡-N are the changes in the activation barrier for folding and unfolding, respectively, between mutation and WT*. A positive value for ΔΔG‡-D or ‡‡G‡-N indicates a decrease in the associated activation barrier energy. Isothermal Titration Calorimetry.
Due to the relatively weak differential CD signal of native and denatured FGF-1, the folding kinetics study required relatively high protein concentrations (>5 mg/ml). […] Thus, the refolding rate constants were not obtainable below certain denaturant concentrations for these mutants. […] The SYM6Δ120-122 mutant is substantially destabilized relative to the WT* protein (see Table II) and presents a relatively short “folding arm” in the Chevron plot, for this reason there is greater uncertainty associated with the folding kinetics determined for this mutant. […]

[2] = Heparin Sepharose affinity chromatography / heparin-binding affinity
Excerpt: All studies herein disclosed utilized a synthetic gene for the 140 amino acid form of human FGF-1 with the addition of an amino-terminal six residue “His-tag” to facilitate purification using nickel nitrilotriacetic acid (Ni-NTA) affinity resin (QIAGEN, Valencia Calif.). The QuikChange® site-directed mutagenesis protocol (Stratagene, La Jolla Calif.) was used to introduce mutations, individually or in combination, using mutagenic oligonucleotides of 25 to 31 bases in length (Biomolecular Analysis Synthesis and Sequencing Laboratory, Florida State University). For deletions involving residues 104-106 and 120-122, mutagenic oligonucleotides were used to delete these positions as well as to simultaneously create point mutations Ala103 ? Gly and Arg119 ? Gly, respectively. […]
All mutant proteins, with the exception of the SYM6 mutant were expressed at levels similar to the WT* protein (i.e. ˜30-100 mg/L). […] Phe, and E280nm (0.1%, 1 cm)=1.31 for all deletion mutations (determined by dithionitrobenzoate titration of cysteine residues).
To quantify the reduced affinity for heparin (a polysulfonated polysaccharide) we determined the affinity for sucrose octasulfate, a structural mimic of a heparin dimer, by isothermal titration calorimetry. […]

Row | Molecule | kf [1] [s⁻¹] | ΔΔG‡-D [1] [kJ/mol] | ΔΔG‡-N [1] [kJ/mol] | mf [1] [M⁻¹] | mu [1] [M⁻¹] | ku [1] | folding behavior ([1]; all denaturant concentrations evaluated) | heparin-binding affinity (in words) [2]
1 | WT*: Wild type (his-tagged) 140 amino acid form of human FGF-1, SEQ ID NO: 4 [reference compound] | 3.31 | 0 | 0 | -6.05 | 0.47 | 0.69 1 × 10^−3 sec^−1 | – | –
2 | B1 | 2.57 | -0.63 | -2.51 | -6.44 | 0.57 | 0.25 1 × 10^−3 sec^−1 | – | –
3 | B2 | 2.00 | -1.25 | -0.25 | -3.70 | 0.95 | 0.62 1 × 10^−3 sec^−1 | – | –
4 | B3 | 7.29 | 1.96 | 2.10 | -6.44 | 0.80 | 1.60 1 × 10^−3 sec^−1 | – | –
5 | B4 | 74.0 | 7.70 | 2.52 | -4.40 | 0.69 | 1.90 1 × 10^−3 sec^−1 | single exponential folding behavior | markedly reduced; also recorded: decreased heparin binding affinity
